Experimental data reported in PMC11452297.

Target: C-terminal domain of FusB (residues 224-324) (Pectobacterium carotovorum)
Assay: ITC; 480 uM PM1 in the syringe titrated into 20 uM FusB in the cell; VP-ITC, 25 °C, 20 mM sodium phosphate pH 7.5, 150 mM NaCl

With Pectocin M1 (natural protein) the Kd was 8.1 µM and the dH was -6 kcal/mol.
